One protein from patent US20080261903 can be followed below.

One data set concerns the target T1, MEK2, P36507.
T1 chain: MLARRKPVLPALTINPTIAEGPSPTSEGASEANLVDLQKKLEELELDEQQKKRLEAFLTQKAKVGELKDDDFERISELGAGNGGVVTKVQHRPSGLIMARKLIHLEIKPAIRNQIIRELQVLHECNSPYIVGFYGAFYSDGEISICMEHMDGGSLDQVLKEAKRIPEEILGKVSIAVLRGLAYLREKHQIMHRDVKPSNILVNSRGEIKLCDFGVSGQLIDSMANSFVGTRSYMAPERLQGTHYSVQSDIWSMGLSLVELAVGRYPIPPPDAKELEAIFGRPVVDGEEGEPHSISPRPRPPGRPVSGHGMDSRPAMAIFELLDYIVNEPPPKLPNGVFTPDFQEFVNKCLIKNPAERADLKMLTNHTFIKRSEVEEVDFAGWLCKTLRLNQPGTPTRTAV

A further data set deals with T2, MKK4, P45985.
T2 chain: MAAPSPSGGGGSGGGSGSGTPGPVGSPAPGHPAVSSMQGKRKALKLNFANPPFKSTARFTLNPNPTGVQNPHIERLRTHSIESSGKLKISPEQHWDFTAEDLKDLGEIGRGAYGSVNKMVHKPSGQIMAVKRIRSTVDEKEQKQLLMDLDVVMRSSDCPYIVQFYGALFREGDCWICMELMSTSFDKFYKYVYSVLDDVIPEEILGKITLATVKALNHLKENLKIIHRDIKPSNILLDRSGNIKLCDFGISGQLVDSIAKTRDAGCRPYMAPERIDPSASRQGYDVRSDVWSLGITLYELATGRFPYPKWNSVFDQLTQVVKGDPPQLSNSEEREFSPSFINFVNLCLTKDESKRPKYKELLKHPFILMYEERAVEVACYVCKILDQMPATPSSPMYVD

For a further data set, the target named is T3, MKK6, P52564.
T3 chain: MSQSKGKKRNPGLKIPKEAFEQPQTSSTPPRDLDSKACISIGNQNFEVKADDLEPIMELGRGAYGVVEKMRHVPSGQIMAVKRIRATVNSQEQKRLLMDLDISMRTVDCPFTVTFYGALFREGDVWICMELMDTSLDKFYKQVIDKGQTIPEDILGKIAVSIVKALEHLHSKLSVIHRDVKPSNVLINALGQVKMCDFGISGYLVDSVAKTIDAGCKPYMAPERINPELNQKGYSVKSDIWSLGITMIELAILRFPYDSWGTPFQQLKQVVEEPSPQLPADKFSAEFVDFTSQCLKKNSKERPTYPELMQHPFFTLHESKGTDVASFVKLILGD

B1: FLAG-tagged RC Kinase polypeptide (human RC Kinase variant 1, SEQ ID NO: 7, with a FLAG epitope at its amino terminal) (protein)
chain: SKKQQLLDILMSSMPKPERHAESLLDICHDTNSSPTDLMTVTKNQNIILQSISRSEEFDQDGDCSHSTLVNEEEDPSGGRQDWQPRTEEFSTSHMKYSGRSIKFLLPPLSLLPTRSGVLTIPQNHKFPKEKERNIPSLTSFVPKLSVSVRQSDELSPSNEPPGALVKSLMDPTLRSSDGFIWSRNMCSFPKTNHHRQCLEKEENWKSKEIEECNKIEITHFEKGQSLVSFENLKEGNIPAVREEDIDCHGSKTRKPEEENSQYLSSRKNESSVAKNYEQDPEIVCTIPSKFQETQHSEITPSQDEEMRNNKAASKRVSLHKNEAMEPNNILEECTVLKSLSSVVFDDPIDKLPEGCSSMETNIKISIAERAKPEMSRMVPLIHITFPVDGSPKEPVIAKPSLQTRKGTIHNNHSVNIPVHQENDKHKMNSHRSKLDSKTKTSKKTPQNFVISTEGPIKPTMHKTSIKTQIFPALGLVDPRPWQLPRFQKKMPQIAKKQSTHRTQKPKKQSFPCICKNPGTQKSCVPLSVQPTEPRLNYLDLKYSDMFKEINSTANGPGIYEMFGTPVYCHVRETERDENTYYREICSAPSGRRITNKCRSSHSERKSNIRTRLSQKKTHMKCPKTSFGIKQEHKVLISKEKSSKAVHSNLHDIENGDGISEPDWQIKSSGNEFLSSKDEIHPMNLAQTPEQSMKQNEFPPVSDLSIVEEVSMEESTGDRDISNNQILTTSLRDLQELEELHHQIPFIPSEDSWAVPSEKNSNKYVQQEKQNTASLSKVNASRILTNDLEFDSVSDHSKTLTNFSFQAKQESASSQTYQYWVHYLDHDSLANKSITYQMFGKTLSGTNSISQEIMDSVNNEELTDELLGCLAAELLALDEKDNNSCQKMANETDPENLNLVLRWRGSTPKEMGRETTKVKIQRHSSGLRIYDREEKFLISNEKKIFSENSLKSEEPILWTKGEILGKGAYGTVYCGLTSQGQLIAVKQVALDTSNKLAAEKEYRKLQEEVDLLKALKHVNIVAYLGTCLQENTVSIFMEFVPGGSISSIINRFGPLPEMVFCKYTKQILQGVAYLHENCVVHRDIKGNNVMLMPTGIIKLIDFGCARRLAWAGLNGTHSDMLKSMHGTPYWMAPEVINESGYGRKSDIWSIGCTVFEMATGKPPLASMDRMAAMFYIGAHRGLMPPLPDHFSENAADFVRMCLTRDQHERPSALQLLKHSFLERSH
Consider B1, for which the “RC Kinase activity (in vitro kinase assay with labelled ATP, SDS-PAGE, autoradiography)” value (“RC Kinase activity” for short) is listed as “it has the ability to phosphorylate other RC Kinase polypeptides” and the “phosphorylating activity (in vitro kinase assay, autoradiography after SDS-PAGE)” value (“phosphorylating activity” for short) is “RC Kinase was able to phosphorylate itself”. Besides, the “phosphorylating activity” value with MEK2, P36507 is “no detectable activity against MEK2”. Also, in the data set with MKK4, P45985, the “RC Kinase activity” value is “it has the ability to phosphorylate other RC Kinase polypeptides, MKK4, and MKK6”; the “phosphorylating activity” value is “RC Kinase was able to phosphorylate itself and MKK4”. In the data set with MKK6, P52564, the “RC Kinase activity” value is “it has the ability to phosphorylate other RC Kinase polypeptides, MKK4, and MKK6”; the “phosphorylating activity” value is on record as “showed only minor activity against MKK6”.
